Laboratory results taken from patent publication US20250101091A1.

How the values were obtained:
[1] = molecular target: Cleaved rabbit epiregulin (rabbit); assay: cell-based or functional assay
[2] = molecular target: Cleaved human epiregulin (human) (UniProt O14944); assay: cell-based or functional assay
[3] = molecular target: Cleaved rat epiregulin (rat) (UniProt Q9Z0L5); assay: cell-based or functional assay
[4] = molecular target: Cleaved cynomolgus monkey epiregulin (cynomolgus monkey); assay: cell-based or functional assay
[5] = molecular target: Cleaved human epiregulin (human) (UniProt O14944); assay: ELISA: biotinylated ligand (20 nM) captured on neutravidin plate, antibody titrated 1:3, anti-human kappa-AP detection, OD405 [panel B]
[6] = molecular target: TGFα (human) (UniProt P01135); assay: as above

- IC50, neutralization of epiregulin induced luciferase reporter activity in C166-AP1-Luciferase cells [1]: 11 nM
- IC50, neutralization of epiregulin induced luciferase reporter activity in C166-AP1-Luciferase cells [2]: 25.9 nM
- IC50, neutralization of human epiregulin induced phospho-ERK induction in TGW cells [2]: 14.6 nM
- IC50, neutralization of epiregulin induced luciferase reporter activity in C166-AP1-Luciferase cells [3]: 720 nM
- IC50, neutralization of epiregulin induced luciferase reporter activity in C166-AP1-Luciferase cells [4]: 8.6 nM
- EC50 (read off the curve) [5]: 0.03 µg/mL
- EC50 (read off the curve) [6]: 0.02 µg/mL
Substance: LY3016859 (antibody)
